Data: the RNAGym collection of RNA variant scans (doi:10.7554/elife.80360)

B1: HDV Ribozyme (parent)
chain: GGCCGGCAUGGUCCCAGCCUCCUCGCUGGCGCCGGCUGGGCAACAUUCCGAGGGGACCGUCCCCUCGGUAAUGGCGAAUGGGACCCA

Variants of: B1
Assay: self-cleavage, relative activity (ratio to wild type); higher = more cleavage; co-transcriptional

Row | Variant | self-cleavage
1 | GGCCGGCAUGGUCCCAGCCUCCUCGCUGGCGCCGGCUGGGCAACAUUCGGAGGGGACCGUCCCCUCGGUAAUGGCGAAUGGGGCCCA [C49G A83G] | 0.378
2 | GGCCGGCAUGGUCCCAGCCUCCUCGCUGGCGCCGGCUGGGCAACAUUCGGAGGGGAGCGUCCCCUCGGUAAUGGCGAAUGGGACCCA [C49G C57G] | 0.997
3 | GGCCGGCAUGGUCCCAGCCUCCUCGCUGGCGCCGGCUGGGCAACAUUCGGAGGGGACAGUCCCCUCGGUAAUGGCGAAUGGGACCCA [C49G C58A] | 0.764
4 | GGCCGGCAUGGUCCCAGCCUCCUCGCUGGCGCCGGCUGGGCAACAUUCGGAGGGGACCGUGCCCUCGGUAAUGGCGAAUGGGACCCA [C49G C61G] | 0.618
5 | GGCCGGCAUGGUCCCAGCCUCCUCGCUGGCGCCGGCUGGGCAACAUUCGGAGGGGACCGUCGCCUCGGUAAUGGCGAAUGGGACCCA [C49G C62G] | 0.133
6 | GGCCGGCAUGGUCCCAGCCUCCUCGCUGGCGCCGGCUGGGCAACAUUCGGAGGGGACCGUCCACUCGGUAAUGGCGAAUGGGACCCA [C49G C63A] | 0.489
7 | GGCCGGCAUGGUCCCAGCCUCCUCGCUGGCGCCGGCUGGGCAACAUUCGGAGGGGACCGUCCCCUUGGUAAUGGCGAAUGGGACCCA [C49G C66U] | 0.646
8 | GGCCGGCAUGGUCCCAGCCUCCUCGCUGGCGCCGGCUGGGCAACAUUCGGAGGGGACCGUCCCCUCGGUAAUGGAGAAUGGGACCCA [C49G C75A] | 0.185
9 | GGCCGGCAUGGUCCCAGCCUCCUCGCUGGCGCCGGCUGGGCAACAUUCGGAGGGGACCGUCCCCUCGGUAAUGGCGAAUGGGAUCCA [C49G C84U] | 0.429
10 | GGCCGGCAUGGUCCCAGCCUCCUCGCUGGCGCCGGCUGGGCAACAUUCGAAGGGGACCGUCCCCUCGGUAAUGGCGAAUGGGACCCA [C49G G50A] | 0.793
11 | GGCCGGCAUGGUCCCAGCCUCCUCGCUGGCGCCGGCUGGGCAACAUUCGCAGGGGACCGUCCCCUCGGUAAUGGCGAAUGGGACCCA [C49G G50C] | 0.587
12 | GGCCGGCAUGGUCCCAGCCUCCUCGCUGGCGCCGGCUGGGCAACAUUCGGAGGAGACCGUCCCCUCGGUAAUGGCGAAUGGGACCCA [C49G G54A] | 0.332
13 | GGCCGGCAUGGUCCCAGCCUCCUCGCUGGCGCCGGCUGGGCAACAUUCGGAGGCGACCGUCCCCUCGGUAAUGGCGAAUGGGACCCA [C49G G54C] | 0.762
14 | GGCCGGCAUGGUCCCAGCCUCCUCGCUGGCGCCGGCUGGGCAACAUUCGGAGGGAACCGUCCCCUCGGUAAUGGCGAAUGGGACCCA [C49G G55A] | 0.976
15 | GGCCGGCAUGGUCCCAGCCUCCUCGCUGGCGCCGGCUGGGCAACAUUCGGAGGGGACCAUCCCCUCGGUAAUGGCGAAUGGGACCCA [C49G G59A] | 1.11
16 | GGCCGGCAUGGUCCCAGCCUCCUCGCUGGCGCCGGCUGGGCAACAUUCGGAGGGGACCGUCCCCUCCGUAAUGGCGAAUGGGACCCA [C49G G67C] | 1.22

Row | Variant | self-cleavage
17 | GGCCGGCAUGGUCCCAGCCUCCUCGCUGGCGCCGGCUGGGCAACAUUCGGAGGGGACCGUCCCCUCGAUAAUGGCGAAUGGGACCCA [C49G G68A] | 0.789
18 | GGCCGGCAUGGUCCCAGCCUCCUCGCUGGCGCCGGCUGGGCAACAUUCGGAGGGGACCGUCCCCUCGCUAAUGGCGAAUGGGACCCA [C49G G68C] | 0.458
19 | GGCCGGCAUGGUCCCAGCCUCCUCGCUGGCGCCGGCUGGGCAACAUUCGGAGGGGACCGUCCCCUCGGUAAUAGCGAAUGGGACCCA [C49G G73A] | 0.197
20 | GGCCGGCAUGGUCCCAGCCUCCUCGCUGGCGCCGGCUGGGCAACAUUCGGAGGGGACCGUCCCCUCGGUAAUCGCGAAUGGGACCCA [C49G G73C] | 0.136
21 | GGCCGGCAUGGUCCCAGCCUCCUCGCUGGCGCCGGCUGGGCAACAUUCGGAGGGGACCGUCCCCUCGGUAAUGCCGAAUGGGACCCA [C49G G74C] | 0.192
22 | GGCCGGCAUGGUCCCAGCCUCCUCGCUGGCGCCGGCUGGGCAACAUUCGGAGGGGACCGUCCCCUCGGUAAUGUCGAAUGGGACCCA [C49G G74U] | 0.219
23 | GGCCGGCAUGGUCCCAGCCUCCUCGCUGGCGCCGGCUGGGCAACAUUCGGAGGGGACCGUCCCCUCGGUAAUGGCAAAUGGGACCCA [C49G G76A] | 1.1
24 | GGCCGGCAUGGUCCCAGCCUCCUCGCUGGCGCCGGCUGGGCAACAUUCGGAGGGGACCGUCCCCUCGGUAAUGGCGAAUGAGACCCA [C49G G81A] | 0.361
25 | GGCCGGCAUGGUCCCAGCCUCCUCGCUGGCGCCGGCUGGGCAACAUUCGGAGGGGACCGUCCCCUCGGUAAUGGCGAAUGUGACCCA [C49G G81U] | 0.205
26 | GGCCGGCAUGGUCCCAGCCUCCUCGCUGGCGCCGGCUGGGCAACAUUCGGAGGGGACCGUCCCCUCGGUAAUGGCGAAUGGCACCCA [C49G G82C] | 0.16
27 | GGCCGGCAUGGUCCCAGCCUCCUCGCUGGCGCCGGCUGGGCAACAUUCGGAGGGGACCGUCCCCUCGGUAAUGGCGAAUGGUACCCA [C49G G82U] | 0.123
28 | GGCCGGCAUGGUCCCAGCCUCCUCGCUGGCGCCGGCUGGGCAACAUUCGGAGGGGACCGACCCCUCGGUAAUGGCGAAUGGGACCCA [C49G U60A] | 0.923
29 | GGCCGGCAUGGUCCCAGCCUCCUCGCUGGCGCCGGCUGGGCAACAUUCGGAGGGGACCGCCCCCUCGGUAAUGGCGAAUGGGACCCA [C49G U60C] | 0.831
30 | GGCCGGCAUGGUCCCAGCCUCCUCGCUGGCGCCGGCUGGGCAACAUUCGGAGGGGACCGGCCCCUCGGUAAUGGCGAAUGGGACCCA [C49G U60G] | 0.762
31 | GGCCGGCAUGGUCCCAGCCUCCUCGCUGGCGCCGGCUGGGCAACAUUCGGAGGGGACCGUCCCCUCGGUAACGGCGAAUGGGACCCA [C49G U72C] | 0.332
32 | GGCCGGCAUGGUCCCAGCCUCCUCGCUGGCGCCGGCUGGGCAACAUUCUGAGGGGACCGUCCCCUCGGUAAUGGCGAAUGGGACCCA [C49U] | 0.96
